From patent US20200317768A1 (published 2020)
Numbering of substitutions follows the chain as printed.

T1: cynomolgus monkey FcγRIIa3 extracellular domain, His-tagged (cynomolgus monkey)
T1 construct: also called cyno FcγRIIa3; cynoFcgRIIa3; not shown: C-terminal His-tag
T1 chain: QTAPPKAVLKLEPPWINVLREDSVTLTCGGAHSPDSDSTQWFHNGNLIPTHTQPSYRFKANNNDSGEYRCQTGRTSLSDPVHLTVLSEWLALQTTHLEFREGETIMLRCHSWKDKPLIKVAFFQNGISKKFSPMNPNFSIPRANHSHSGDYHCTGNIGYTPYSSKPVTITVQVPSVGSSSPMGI

T2: cynomolgus monkey FcγRIIa1 extracellular domain with C-terminal His-tag (cynomolgus monkey)
T2 construct: also called cyno FcgRIIa1; cynoFcγRIIa1
T2 chain: T1 chain with T95P, A121T, S128A, P133H, N135D

T3: cynomolgus monkey FcγRIIIaS extracellular domain with C-terminal His-tag (cynomolgus monkey, UniProt Q8SPW2 21-206 at identity 1.00))
T3 construct: also called cyno FcgRIIIaS; cynoFcγRIIIaS
T3 chain: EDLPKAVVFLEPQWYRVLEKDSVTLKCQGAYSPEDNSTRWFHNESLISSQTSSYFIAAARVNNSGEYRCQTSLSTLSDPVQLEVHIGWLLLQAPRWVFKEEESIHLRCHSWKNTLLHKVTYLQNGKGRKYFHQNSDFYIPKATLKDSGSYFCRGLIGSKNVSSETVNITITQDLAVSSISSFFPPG

T4: cynomolgus monkey FcγRIIa2 extracellular domain with C-terminal His-tag (cynomolgus monkey)
T4 construct: also called cyno FcgRIIa2; cynoFcγRIIa2
T4 chain: T1 chain with I127K, K130N, P133H, R142Q

T5: human FcγRIIb extracellular domain with C-terminal His-tag (human, UniProt P31994 43-217)
T5 construct: also called human FcgRIIb
T5 sequence: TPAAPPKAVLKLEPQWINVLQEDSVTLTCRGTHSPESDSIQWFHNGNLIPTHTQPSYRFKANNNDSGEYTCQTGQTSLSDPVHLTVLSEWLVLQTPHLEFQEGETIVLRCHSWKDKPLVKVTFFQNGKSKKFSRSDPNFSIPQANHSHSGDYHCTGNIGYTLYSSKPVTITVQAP

T6: cynomolgus monkey FcγRIIb extracellular domain with C-terminal His-tag (cynomolgus monkey)
T6 construct: also called cyno FcgRIIb; cynoFcγRIIb
T6 chain: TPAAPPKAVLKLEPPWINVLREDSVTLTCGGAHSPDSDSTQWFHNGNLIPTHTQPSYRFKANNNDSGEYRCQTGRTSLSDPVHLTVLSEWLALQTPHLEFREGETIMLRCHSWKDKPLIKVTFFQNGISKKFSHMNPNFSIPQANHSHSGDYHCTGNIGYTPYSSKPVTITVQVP

T7: human FcγRIIaH extracellular domain with C-terminal His-tag (human, UniProt P12318 34-217)
T7 construct: also called human FcgRIIaH; FcγRIIa (type H)
T7 sequence: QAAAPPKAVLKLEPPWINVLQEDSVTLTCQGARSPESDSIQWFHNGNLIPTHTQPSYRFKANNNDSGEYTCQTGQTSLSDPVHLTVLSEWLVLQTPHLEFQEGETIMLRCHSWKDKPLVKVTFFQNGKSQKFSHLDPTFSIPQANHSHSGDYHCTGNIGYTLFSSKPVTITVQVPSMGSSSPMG

T8: cynomolgus monkey FcγRIIa3 extracellular domain with C-terminal His-tag (cynomolgus monkey)
T8 construct: also called cyno FcgRIIa3; cynoFcγRIIa3
T8 chain: T1 chain

B1: M103205H795-MY469/M103202L889-SK1 (antibody, human IgG1, kappa)
heavy: QVTLKESGPVLVKPTETLTLTCTVSGIDLSHDDISWVRQAPGKGLEWVGIISYAGSTYYASWAKGRLTISKDTSKNQVVLTMTNMDPVDTATYYCARGVPAYSHGGDLWGQGTLVTVSSASTKGPSVFPLAPSSKSTSGGTAALGCLVKDYFPEPVTVSWNSGALTSGVHTFPAVLQSSGLYSLSSVVTVPSSSLGTQTYICNVNHKPSNTKVDKKVEPKSCDKTHTCPPCPPPELLTGPSVFLFPPKPKDTLMISRTPEVTCVVVDVSDEDPEVKFNWYVDGVEVHNAKTKPREEQYNSTYRVVSVLTVLHQDWLNGKEYKCKVSNKALPKPIEKTISKAKGQPREPQVYTLPPSREEMTKNQVSLTCLVKGFYPSDIAVEWESNGQPENNYKTTPPVLDSDGSFFLYSKLTVDKSRWQQGNVFSCSVMHEALHNHYTQKSLSLSP
light: DIVMTQSPATLSLSPGERATLSCTSSQSVYHANWLSWFQQKPGQPPKLLIYWASTLAYGVPSRFSGSGSGTDFTLTISSLQPEDAATYYCAGGYGGGRYAFGQGTKVEIKRTVAAPSVFIFPPSDEQLKSGTASVVCLLNNFYPREAKVQWKVDNALQSGNSQESVTEQDSKDSTYSLSSTLTLSKADYEKHKVYACEVTHQGLSSPVTKSFNRGEC
notes: copies: 2 + 2
B2: M103205H795-MY380/M103202L889-SK1 (antibody, human IgG1, kappa)
heavy: B1 heavy with P233A, T238N, D270E, P398K
light: B1 light
notes: Substitutions introduced into M103205H795-SG1, expressed with M103202L889-SK1 as light chain; EU numbering
B3: M103205H795-MY339/M103202L889-SK1 (antibody, human IgG1, kappa)
heavy: B1 heavy with P233A, T238L, K328T, P398K
light: B1 light
notes: as for B2
B4: M103205H795-MY476/M103202L889-SK1 (antibody, human IgG1, kappa)
heavy: B1 heavy with P233Y
light: B1 light
notes: copies: 2 + 2
B5: M103205H795-MY209/M103202L889-SK1 (antibody, human IgG1, kappa)
heavy: B1 heavy with P233A, T238N, Q297L, K328T
light: B1 light
notes: as for B2
B6: M103205H795-MY470/M103202L889-SK1 (antibody, human IgG1, kappa)
heavy: B1 heavy with P233Q
light: B1 light
notes: copies: 2 + 2
B7: M103205H795-MY386/M103202L889-SK1 (antibody, human IgG1, kappa)
heavy: B1 heavy with P233A, T238L, Q297L, K328T
light: B1 light
notes: as for B2
B8: M103205H795-MY473/M103202L889-SK1 (antibody, human IgG1, kappa)
heavy: B1 heavy with P233T
light: B1 light
notes: copies: 2 + 2
B9: M103205H795-MY387/M103202L889-SK1 (antibody, human IgG1, kappa)
heavy: B1 heavy with P233A, S241V
light: B1 light
notes: as for B2
B10: M103205H795-MY475/M103202L889-SK1 (antibody, human IgG1, kappa)
heavy: B1 heavy with P233W
light: B1 light
notes: copies: 2 + 2
B11: M103205H795-MY283/M103202L889-SK1 (antibody, human IgG1, kappa)
heavy: B1 heavy with P233A, Q297L
light: B1 light
notes: as for B2
B12: M103205H795-MY474/M103202L889-SK1 (antibody, human IgG1, kappa)
heavy: B1 heavy with P233V
light: B1 light
notes: copies: 2 + 2
B13: M103205H795-MY471/M103202L889-SK1 (antibody, human IgG1, kappa)
heavy: B1 heavy with P233R
light: B1 light
notes: copies: 2 + 2
B14: M103205H795-MY340/M103202L889-SK1 (antibody, human IgG1, kappa)
heavy: B1 heavy with P233A, T238L, Q297L, P398K
light: B1 light
notes: as for B2
B15: M103205H795-MY342/M103202L889-SK1 (antibody, human IgG1, kappa)
heavy: B1 heavy with P233A, T238L, Q297L, P398M
light: B1 light
notes: as for B2
B16: M103205H795-MY341/M103202L889-SK1 (antibody, human IgG1, kappa)
heavy: B1 heavy with P233A, T238L, Q297L, K328T, P398K
light: B1 light
notes: as for B2
B17: M103205H795-MY472/M103202L889-SK1 (antibody, human IgG1, kappa)
heavy: B1 heavy with P233S
light: B1 light
notes: copies: 2 + 2
B18: M103205H795-MY388/M103202L889-SK1 (antibody, human IgG1, kappa)
heavy: B1 heavy with P233A, S241I
light: B1 light
notes: as for B2

Columns and labels:
[1] = target: T1, cynomolgus monkey FcγRIIa3 …; assay: SPR (BIACORE), captured antibody, FcgR as analyte
[2] = target: T2, cynomolgus monkey FcγRIIa1 …; assay: SPR (BIACORE); KD of SG1 / KD of variant;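 further: relative to parent M103205H795-SG1 carrying the SG1 human heavy chain constant region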
[3] = target: T3, cynomolgus monkey FcγRIIIaS …; assay: SPR (BIACORE); KD of SG1 / KD of variant;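 further: relative to parent M103205H795-SG1 carrying the SG1 human heavy chain constant region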
[4] = target: T4, cynomolgus monkey FcγRIIa2 …; assay: SPR (BIACORE); KD of SG1 / KD of variant;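 further: relative to parent M103205H795-SG1 carrying the SG1 human heavy chain constant region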
[5] = target: T5, human FcγRIIb extracellular domain with …; assay: SPR (BIACORE); KD of SG1 / KD of variant;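 further: relative to parent M103205H795-SG1 carrying the SG1 human heavy chain constant region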
[6] = target: T6, cynomolgus monkey FcγRIIb extracellular …; assay: SPR (BIACORE); KD of SG1 / KD of variant
[7] = target: T7, human FcγRIIaH extracellular domain …; assay: SPR (BIACORE); KD of SG1 / KD of variant
[8] = target: T9, human FcγRIIIaV extracellular domain with C-terminal His-tag (human, UniProt P08637 17-208); assay: SPR (BIACORE); KD of SG1 / KD of variant
T9 construct: also called human FcgRIIIaV
T9 sequence (P08637 17-208 F176V): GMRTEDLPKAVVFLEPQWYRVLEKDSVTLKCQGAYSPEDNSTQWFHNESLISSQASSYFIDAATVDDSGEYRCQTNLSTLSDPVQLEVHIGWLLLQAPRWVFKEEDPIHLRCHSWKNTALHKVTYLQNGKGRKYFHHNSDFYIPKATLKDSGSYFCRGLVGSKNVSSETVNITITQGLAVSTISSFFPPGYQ

[9] = target: T8, cynomolgus monkey FcγRIIa3 …; assay: SPR (BIACORE); KD of SG1 / KD of variant

| Binder | Kd [1] [µM] | KD fold (SG1 = 1) [2] [fold] | KD fold (SG1 = 1) [3] [fold] | KD fold (SG1 = 1) [4] [fold] | KD fold (SG1 = 1) [5] [fold] | KD fold (SG1 = 1) [6] [fold] | KD fold (SG1 = 1) [7] [fold] | KD fold (SG1 = 1) [8] [fold] | KD fold (SG1 = 1) [9] [fold] |
| --- | --- | --- | --- | --- | --- | --- | --- | --- | --- |
| B1 | 4.9 |  |  |  |  |  |  |  |  |
| B2 |  | 3.4 | 0.13 | 5.1 | 9.6 | 6.2 | 1.5 | 0.08 | 3.2 |
| B3 |  | 0.9 | 0.47 | 1.7 | 1.5 | 2.4 | 1.7 | 0.14 | 1.7 |
| B4 | 2.6 |  |  |  |  |  |  |  |  |
| B5 |  | 5.1 | 0.16 | 7.4 | 9.2 | 9.5 | 1.2 | 0.06 | 8.9 |
| B6 | 4.9 |  |  |  |  |  |  |  |  |
| B7 |  | 0.6 | 0.14 | 0.9 | 1 | 1.1 | 0.9 | 0.03 | 1.1 |
| B8 | 5.5 |  |  |  |  |  |  |  |  |
| B9 |  | 1.4 | 0.14 | 2.7 | 2.5 | 2.2 | 2.5 | 0.17 | 12.1 |
| B10 | 2.3 |  |  |  |  |  |  |  |  |
| B11 |  | 2.3 | 0.16 | 3.2 | 2.6 | 4.3 | 4.9 | 0.14 | 3.5 |
| B12 | 4.8 |  |  |  |  |  |  |  |  |
| B13 | 4.5 |  |  |  |  |  |  |  |  |
| B14 |  | 0.7 | 0.16 | 1 | 1.4 | 1.6 | 2.2 | 0.05 | 0.7 |
| B15 |  | 0.6 | 0.14 | 0.6 | 1.2 | 1.4 | 1.9 | 0.03 | 0.3 |
| B16 |  | 1.2 | 0.38 | 1.8 | 2.6 | 3 | 2.7 | 0.12 | 1.9 |
| B17 | 5.1 |  |  |  |  |  |  |  |  |
| B18 |  | 1.5 | 0.23 | 3 | 3.1 | 2.4 | 2.1 | 0.19 | 13.1 |
